# Results from patent publication US20110059063A1 (Amgen, published 2011).
# Where a chain is given by its changes, count along the chain named.
# B1: anti-PAR-2 antibody 12D5 (antibody, V domains shown)
# VH: QVQLQQSGPGLVKPSQTLSLTCAISGDSVSSNRAAWNWIRQSPSRGLEWLGRTYYRSKWYNDFAVSVRSRITITPDTSKNQFSLQLNSVTPEDTAVYYCARDRNSGYYYYGLDVWGQGTTVTVSS
# VL: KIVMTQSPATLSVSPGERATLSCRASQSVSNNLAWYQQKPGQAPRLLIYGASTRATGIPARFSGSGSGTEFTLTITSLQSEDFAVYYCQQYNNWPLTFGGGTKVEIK
# B2: anti-PAR-2 antibody 13F2 (antibody, V domains shown)
# VH: B1 VH with F63H, R68K, T94K
# VL: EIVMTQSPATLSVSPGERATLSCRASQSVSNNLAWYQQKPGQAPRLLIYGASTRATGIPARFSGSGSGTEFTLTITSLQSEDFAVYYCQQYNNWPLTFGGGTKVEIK
# B3: anti-PAR-2 antibody 2C6 (antibody, V domains shown)
# VH: QVQLVQSGAEVKKPGASVKVSCKASGYTFTGYFFHWVRQAPGQGLEWVGWINPNSGATHFAQKFQGRVTMTRDTSISTAYMELSRLRSDDTAVYYCARDGSNWNRDYGMDVWGQGTTVTVSS
# VL: QSVLTQPPSASGTPGQRVTISCSGSSSNIGINHVYWYQQLPGTAPKIFIYRNNQRPSGVPDRFSGSKSGTSASLAISGLRSEDEADYYCAVWDDSLSGVVFGGGTKLTVLG
# B4: anti-PAR-2 antibody 1A1 (antibody, V domains shown)
# VH: EVQLVQSGAEVKKPGESLKISCKGSGYNFISHWIGWVRQMPGKGLEWMGMIYPGDSDTRYSPSFQGQVTISADKSINTAYLQWRSLKASDTAMYFCARHGGITGTTFYYDFGMDVWGQGTTVTVSS
# VL: SYELTQPPSVSVSPGQTARITCSGDALPKQYASWYQQKPGQAPLLVIYRDSERPSGLPERFSGSSSGTTVTLTISGVQAEDEADYYCQSADSGGSYVFGTGTKVTVL
# notes: Human antibody from a XenoMouse hybridoma; also called monoclonal antibody 1A1
# B5: anti-PAR-2 antibody 1B5 (antibody, V domains shown)
# VH: EVQLVQSGAEVKKSGESLKISCKGSGYSFSNYWIGWVRQMPGKGLEWMGIIYPGDSDTRYSPSFQGQVTISADKSIRTAYLQWSSLKASDTAMYYCARHKGITGTTFYYDYGMDVWGQGTTVTVSS
# VL: B4 VL with D25E, L44V, S51T, L57I, G93N, S95A, K103R
# notes: Human antibody from a XenoMouse hybridoma
# B6: anti-PAR-2 antibody 1C7 (antibody, V domains shown)
# VH: B5 VH with S14P, S30T, N31S
# VL: B4 VL with D25E, L44V, R49K, L57I, G93N, S95A
# notes: as for B5
# B7: anti-PAR-2 antibody 9B12 (antibody, V domains shown)
# VH: QVQLVESGGGVVQPGRSLRLSCAASGFTFSSYGMHWVRQAPGKGLEWVAVIWYDGSNKYYADSVKGRFTISRDNSKNTLYLQMNSLRAEDTAVYYCARDLGAAAGTGFDYWGQGTLVTVSS
# VL: QSVLTQPPSVSAAPGQKVTISCSGSSSNIGNNYVSWYQQLPGTAPKLLIYDNNKRPSGIPDRFSGSKSGTSATLGITGLQTGDEADYYCGTWDSSLSAGVVFGGGTKLTVL
# Columns and labels:
# [1] = molecular target: PAR-2 (on the cells of the FLIPR Ca2+ mobilization assay); test: cell-based or functional assay
# PAR-2 (on the cells of the FLIPR Ca2+ mobilization assay), sequence (P55085 whole entry): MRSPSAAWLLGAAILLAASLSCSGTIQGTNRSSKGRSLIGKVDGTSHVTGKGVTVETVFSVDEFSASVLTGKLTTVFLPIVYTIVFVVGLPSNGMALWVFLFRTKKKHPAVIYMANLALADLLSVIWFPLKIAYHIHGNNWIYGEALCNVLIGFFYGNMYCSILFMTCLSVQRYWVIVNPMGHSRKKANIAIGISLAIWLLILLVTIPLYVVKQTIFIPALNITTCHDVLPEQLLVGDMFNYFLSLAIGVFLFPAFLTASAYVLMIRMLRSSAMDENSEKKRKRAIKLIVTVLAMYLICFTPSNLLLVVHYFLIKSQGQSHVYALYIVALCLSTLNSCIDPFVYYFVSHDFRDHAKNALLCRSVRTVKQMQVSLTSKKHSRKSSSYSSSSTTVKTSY
# [2] = molecular target: T1, cell surface expressed human PAR-2 (human, UniProt P55085 25-397); test: KinExA, cells expressing human PAR-2, averaged for N=5 experiments; antibody 1A1; N=5 experiments
# T1 sequence: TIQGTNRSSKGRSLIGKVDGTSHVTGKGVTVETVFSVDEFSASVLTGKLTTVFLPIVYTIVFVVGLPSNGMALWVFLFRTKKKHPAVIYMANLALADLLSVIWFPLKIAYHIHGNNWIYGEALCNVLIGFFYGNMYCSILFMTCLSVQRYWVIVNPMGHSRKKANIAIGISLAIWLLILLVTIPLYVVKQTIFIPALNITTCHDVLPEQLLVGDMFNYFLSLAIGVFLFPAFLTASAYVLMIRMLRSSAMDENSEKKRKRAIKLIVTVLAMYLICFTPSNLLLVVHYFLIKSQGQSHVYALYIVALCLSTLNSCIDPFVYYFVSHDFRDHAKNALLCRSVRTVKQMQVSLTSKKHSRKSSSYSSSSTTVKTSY
# Text: This example describes the analysis of the binding properties of PAR-2 antigen-binding proteins to cell surface expressed PAR-2 utilizing a Kinetic Exclusion Assay which measures binding events in solution phase and can be used to calculate KD, Kₒₙ and Koff (KinExA®; Sapidyne Instruments, Boise, Id.), substantially as described previously by Xie et. al. J. Imm, Methods 304:1 (2005) and Rathanaswami et. al. Anal. Biochem. 373:52 (2008). Briefly, serial dilutions of cells expressing human PAR-2 (for example, CHO transfectants expressing human PAR-2 at the cell surface, obtainable by transfecting CHO cells with human full length PAR-2 cDNA encoding a polypeptide of SEQ ID NO:2) and control cells (i.e., non-transfected CHO cells) in a modified DMEM medium (phenol red free containing 10% heat inactivated FBS, 0.1 mM MEM non-essential amino acids, 1 mM sodium pyruvate, penicillin-streptomycin-glutamine, and 0.025% (w/w) sodium azide) are incubated with set amounts of antibody for 24 to 36 hours at 4 C with rotation. […] The free mAb is measured by KinExA® using the appropriate capture beads and Cy5-conjugated anti-human secondary antibodies, as described by Rathanaswami et al. Biochem Biophys Research Commun:1004 (2005). […]
# The KD of certain PAR-2 antibodies was determined in this manner.
# [3] = molecular target: T2, clipped N-terminal PAR-2/Fc polypeptide (human); test: Western blot; by the footnote, an upstream binder binds only the full-length PAR-2/Fc
# T2 construct: also called truncated amino-terminal PAR-2-Fc; cleaved PAR-2/Fc
# Text: To analyze binding to uncleaved versus cleaved PAR-2, various amounts of purified uncleaved and clipped N-terminal PAR2-Fc are subjected to SDS-PAGE using 8-16% polyacrylamide gradient gels (Novex gels, Invitrogen Life Technologies) in a Tris-Glycine buffer system. Gel lanes containing See Blue standards (Novex, Invitrogen Life Technologies) for molecular weight identification are also included. Following electrophoresis, proteins are transferred from gels onto nitrocellulose membranes using a Novex XCell II Blot Module (Invitrogen Life Technologies). Membranes are blocked with 1:1, Odyssey blocking buffer, OBB, (LI-COR Biosciences):TBS (Tris Buffer Saline) overnight at 4 C with shaking. Antibodies to be analyzed are diluted in 1:1 OBB:TBS at a desired final concentration for 1 hr at room temperature. Membranes are washed extensively with 0.1% Tween 20 in TBS (3-4 changes of 100 ml over ˜1 hr). Membranes are then exposed to the appropriate secondary antibody-Alexa680 (Molecular Probes, Invitrogen Life Technologies) conjugate (goat anti-rabbit IgG, or goat anti-mouse IgG) diluted 1:5000 in 1:1 (OBB:TBS) for 1 hr at room temperature. Membranes are washed as described above, and if desired, analyzed using a LI-COR Odyssey Infrared Imaging System (LI-COR Biosciences).
# Several PAR-2 antibodies were tested in different assay formats; Table 2 summarizes the results. IC₅₀ values were determined in a FLIPR assay for Ca2+ mobilization described previously; binding to the upstream region of the cleavage site versus the downstream region of the cleavage site was determined using the Western blot assay described previously.
Binder,"IC50, FLIPR assay for Ca2+ mobilization [1]",Kd [2],binding result [3]
B1,> 1000 nM,,
B2,> 1000 nM,,
B3,> 1000 nM,,
B4,2 nM,0.0628 nM,no binding
B5,3 nM,,no binding
B6,3 nM,,no binding
B7,> 1000 nM,,
